{
  "source": "paper PMC10622425",
  "biological_target": "M2 protein of human Influenza A virus A/WSN/33 (H1N1), wild type (Influenza A virus A/WSN/33 (H1N1))",
  "note": "Where “and” joins values, the source holds several entries; their conditions need not be identical. Identical values can stand only once.",
  "data": [
    {"substance": "M2 protein of human Influenza A virus A/WSN/33 (H1N1), wild type (natural protein)", "values": [
      {"measurement": "stoichiometry N", "value": "4 and 2 and 3"}
    ]}
  ]
}
